By stoichiometry N is commonly meant the number of molecules, sites or subunits per partner or assembly.

In publication PMC5998909 one finds stoichiometry N data, which are given here for one substance.

The assay addresses Recombinant Art v 3.0201, non-specific lipid transfer protein of Artemisia vulgaris (mugwort) pollen (Artemisia vulgaris (mugwort)) (UniProt C4MGG9). As to the kind of experiment: crystal structure + other: NMR spectroscopy; recombinant non-tagged Art v 3.0201; X-ray crystallography of the non-labelled protein, NMR of the 13C/15N-labelled protein.

As to “Recombinant Art v 3.0201, non-specific lipid transfer protein of Artemisia vulgaris (mugwort) pollen (from UniProt C4MGG9 1-114) (non-labelled protein)”, the stoichiometry N came to 2.
